The DeepSol protein solubility set

test: soluble on expression in E. coli; label from the status in PepcDB or PDB records

Soluble on expression in E. coli, soluble:
SAQEKMELDLELPPGTGGSPAEGGGSGGGGGLRRSNSAPLIHGLSDTSPVFQAEAPSARRNSTTFPSRHGLLLPASPVRMHSSRLHQIKQEEGMDLINRETVHEREVQTAMQISHSWEESFSLSDNDVEKSASPKRIDFIPVSPAPSPTRGIGKQCFSPSLQSFVSSNGLPPSPIPSPTTRFTTRRSQSPINCIRPSVLGPLKRKCEMETEYQPKRFFQGITNMLSSDVAQLSDPGVCVSSDTLDGNSSSAGSSCNSPAKVSTTTDSPVSPAQAASPFIPLDELSSK, MIEFTALDDLSLLRESVSLECKLAQGRDGKGALPDDFWPTYSAMANTDGGIVILGVRERKGQFEVAGIENPDKLRTELFNHLNNRQKVSVNLLRDEDVRAWPVEGKTLLVVEIPRARRQQRPVYLRGNPLGGHTYRRLHEGDRPLPDEDVKRMLAEQVEDSRDERILPGYGLDDLHLESLRAYRQLFANRDPSHPWNALADQAFLRQIGGWRQHRETGEAGLTLAGLLMFGQWSSITEAVPLCFLDYQERPADYATTVQWLDRIVPDGTWSGNVFDFYRRVVGKLTADIKVPFVLKGDIRQDDTPTHKALREALVNTLVHADYTGRISVLVVKEPAGFVLRNPGGLRVPAQQALQGGMSDCRNRTMQQMFLMIGLGERAGSGMSRIVHGWRDLGHELHLRESYEPHEHSVLEMFWAKGRGATLASESSEESSEESSEETGKKILHLLREEPSLTASALARRLQLTPRAIEKQLAKLKAQKRLRRIGPNKGGHWEVGELEHHHHHH, MVLDQGDVISRINEGAISSSLEDLAKETGKEVRFVTIHRLDYGETPESFAQALFEKWFPSKEAQANQILLVLDTVTNGTAIITGDEVKPLLTDTIANSVAEETLAAPLRDGNKYNQAFLDASDRLVAVLSGQPDPGPPQIVDKLEHHHHHH, SNARGLGSELKDSIPVAELSASGPFESHDLLRKGFSCVKNELLPSHPLELSEKNFQLNQDKMNFSTLRNIQGLFAPLKLQMEFKAVQQVHRLPFLPSSNLSLDILRGNDETIGFEDILNDPSQSELMGEPHVMVEHKLGLL, MKSGVIPSSAVGQKINEWYRYIRTFSVPDAEVLKAEIQQELKHMQHDSNLLLYYSLMEFRHQLMLDYLEPLEKLNIEDQPSLSELSRNIDSNQADLKGLLDYYVNFFRGMYEFDKREFISAITYYKQAEKKLSFVADHIERAEFYFKIAEAYYYMKQTYFSLINIKNAYEIYVEQETYNVRIIQCHFVFGVNLMDERNFEQAARHFKLALNMAQAEQKAQLVGRAYYNLGLCYYNQDLLDPAIDYFEKAVSTFESSRIVNSLPQAYFLITLIYYKQGKHDKASEYHKRGYEYAKETDDADYAVKFEFLQSLYLDQPNEEGIERCFQYLKNKNMYADIEDLALEVAKYYYEQKWFKLSASYFLQVEEARKQIQRSEGLYEIEI, MKTIYIYKGSIPEDKKKGDNAIWVTEKKIIDALEKAANSNGESTQSNPKTIALQAAKKETKKSNKKESKTIGYTTTGYVNADGKHIFDTDRINNERFDRKIIIGATLETLDQSSTLQSGEAIVLPAPGKYKSSDQKTVMTAQGPKIIGIHANAKENEETQKFVNWF, MNEETHNKKWQITHRKIQEIVFHLLKEHPIKEISVSQVCKKANINRSTFYDHFEDIYELFDVTQLNKRKELFESFIKQSNPRDKFNFYDLQSLTQFLTFIKENGWIYSIVLKSRQDFPITEGFEELYKVLINPLKKKRPELTDNELAYYFIAFQSSFTFILKRWSDNDYQEKEKEIAAILINSMPLILKNK, PGSMTVTQSQLELLIRNAFPEAEITVTSLVGDNNHYSIKVISSQFQGKSKLEQHRMIYKVLDGLNIHAIQIQTGCK, MDSDLKKVQKNSDQKQVSKSKTATAPTEPFNSKATELPSILKPKFPSDKVLKKKKSGDMFDLVGQIVIDIVDDNPDDDDRQDEATTVDTVQEGIGATVDVTLVEDVAEKAHEPASTPNVADRLQKPVAKDDNSAPVEEANRKKKEGKDPKNSEEAKKNSKKGKNGTARRSALKGVTIPPVAASLPCPPPPPPLSERKKNVGPKPCVGPAQKNLSSQRKHSSKRNRKGLLRNVAKLWGRKSDGIANPTKAMLSKKYVPPDYGVNPVDFMPDLECYFSKNDITVRDKNKCSKGEVFVEKLPFWLARLPSDDDIPKAQIQAHRPLKQAFEGNPSLLLPKCPRTLPFCEPDSDTLEKFKQVDKQMGTDVPEQASKRLCTNTFYGTLMFEKDKSASEEVKKKKEEPKLKSLGEESKLETKPKPYDFLQKKSTKTTGERGRQKPQLQKVPPQKLETGANVQKVKKMSARGLKVEMYYKLAEKNEAETSDVSILIDGHKRKFAVICNGIGREMVDLHYDSKKFPRIFSRERHLYVMFSESTSDGFRLTFGATEREQFLRIMHSLGCLLDTAIVKFSQQSSSSQPPPMRRDSTAVFNNSYNQYTSFQQASQPRVFSTIKLELSGDSCNSAFQPSQPTGFPDNQLLTIKKSSSNQISLSVEVADKCIQTEDLVDLLADDEYCMRKALRKMIENPSFIKAVAAAENTLQYIPQAEQEGLEDVTEPPINDIFFDRFHQPQLEQHDSVPED

Soluble on expression in E. coli, not soluble:
MGSDKIHHHHHHMSFTTWTPPAVASERQPFALTLWRAVEAQHVVSTMPLVDSLDEQAVLEAVLDAGKPAVPAEARHLHYLLFTPFRYPPSPWGSRFRAGQDPGVFYGAEEIRTACAELGYWRWRFLNDSPALPRIDARAQTLFQVSVRTEGVALDTPPFDRDSAQWTDPDSHEACQAFGRIAREAGIGLIRYTSVRDPGHGPCGAVMTPRAFDHPLPLATTTWMLTVRRDRVIWQRDDLQQRDSFEFAASLWQRTSERSPEG, MNIIKGNIASPLGFSADGLHAGFKKKKLDFGWIVSEVPANVAGVFTTNKVIAAPLKLTKNSIEKSGKMQAIVVNSGIANSCTGKQGEKDAFKMQQLAANKLQIQPEYVGVASTGVIGKVMPMSILKNGFSKLVKNGNADDFAKAILTTDTHTKTCVVNEEFGSDTVTMAGVAKGSGMIHPNLATMLAFITCDANISSQTLQQALKDVVEVTFNQITVDGDTSTNDMVLVMSNGCTNNNEIKKDSEDYYKFKQMLLYIMTDLAKSIARDGEGASKLIEVTVKGAKESSAARMIAKSVVGSSLVKTAIFGEDPNWGRIIAAAGYAKTYFDINQVDIFIGRIPVLIRSSPVKYDKEEIQEIMSAEEISIQLDLHQGNCEGQAWGCDLSYDYVKINALYTTLEHHHHHH, MSLKLHKGIKEYECKECHRRFAQKVNMLKHCKRHTGIKDFMCELCGKTFSERNTMETHKLIHTVGKQWTCSVCDKKYVTEYMLQKHVQLTHDKVEAQSCQLCGTKVSTRASMSRHMRRKHPEVLAVRIDDLDHLPETTTIDASSIGIVQPELTLEQEDLAEGKHGKAAKRSHKRKQKPEEEAGAPVPEDATFSEYSEKETEFTGSVGDETNSAVQSIQQVVVTLGDPNVTTPSSSVGLTNITVTPITTAAATQFTNLQPVAVGHLTTPERQLQLDNSILTVTFDTVSGSAMLHNRQNDVQIHPQPEASNPQSVAHFINLTTLVNSITPLGSQLSDQHPLTWRAVPQTDVLPPSQPQAPPQQAAQPQVQAEQQQQQMYSYEGHHHHHH, AGADGTSEELADNFVFGFHATVEALQQGRGNKLFLQEDARGEKIEQLKQAAKEQAVPVKWVPKAKLDTMSDHGVHQGMVLAITA, MSVTMSEAFDYSMIDNILSEHGTSETAIIAILQSIQEEYHYIPKEVFPYLSKKLKVSEARIFSVATFYENFSLEPKGKYIIKVCDGTACHVRKSIPIIERLRKELGLSGTKPTTDDLMFTVETVSCLGACGLAPVITVNDKVYAEMTPDKASELIKQLREGDADA, MKQITGVYTAPRPHWVGDGFPVRSLFSYQSHAQQLSPFLLLDYAGPHTFTPGNEKRGVGEHPHRGFETVTIVYSGEVEHRDSTGRGGVIGPGDVQWMTAGAGILHEEFHSDAFTRRGGELEMVQLWVNLPMKDKMTTPGYQSITHDVIPTVTLPDNAGVVRVIAGRYEETKGPAHTFSPLNVWDMRLQRNRQLTLAQPEGWSTALVVLKGNITVNGTTPVNEAQLVVLSQQGKTLHLEASSDASVLLLSGEPLNEPIVGYGPFVMNTKQEIAEAVRDFNSGRFGQI, MSLLLEILDLSRSTYYYQVKRLAQGDKDIELKHVIREIYDEHKGNYGYRRIHMELRNRGFVVNHKKVQRLMKVMGLAARIRRKRKYSSYKGEVGKKADNLIKRHFEGSKPYEKCYTDVTEFALPEGKLYLSPVFDSYNCEIIDFTLSRSPNLKQAQTMLEKTFPADSYSGTILHSDQGWQYQHQSYHDFLESKGILPSMSRKGNSPDNGMMDSFFGILKSEMFYGLETTYQSLDKLEEAITDYIFYYNNKRIKAKLKGLSPVQYRTKSFQEGHHHHHH, MGSDKIHHHHHHCKPAARSVITESSLIFTSIHSSYVISTYYKRCVVLSQRKEAVQNMNVYQLKEELIEYAKSIGVDKIGFTTADTFDSLKDRLILQESLGYLSGFEEPDIEKRVTPKLLLPKAKSIVAIALAYPSRMKDAPRSTRTERRGIFCRASWGKDYHDVLREKLDLLEDFLKSKHEDIRTKSMVDTGELSDRAVAERAGIGFSAKNCMITTPEYGSYVYLAEMITNIPFEPDVPIEDMCGSCTKCLDACPTGALVNPGQLNAQRCISFLTQTKGFLPDEFRTKIGNRLYGCDTCQTVCPLNKGKDFHLHPEMEPDPEIAKPLLKPLLAISNREFKEKFGHVSGSWRGKKPIQRNAILALAHFKDASALPELTELMHKDPRPVIRGTAAWAIGKIGDPAYAEELEKALEKEKDEEAKLEIEKGIELLKASGMTKQGLS, MGSDKIHHHHHHMSQHVLLNSVDHKDIKIITERSAKYGDNVWFSVTFPAEFRSVQAHYPIFFQKDQTTGQFFAVALYGFQNNENLFLNNGTWQASYIPLTQRRQPFLIGQQSVREDGVERKQRVIHIDIASPRVSTTEGEALFHPYGGNTQYLDDIGDMLEGIHHGLIDSKHFIDLLIEHQLLESFTLDVKLDNGQQHQMMGFYTINEDTLASLSAEVLAQLHIKDYLKAIYMALASQARVRDLLNLKNAQG, YTDYEERRLIHEVPIIVPRGTGKTTLGSAIAEVGQIIDGEWGADIQLLAYSREQAGYLFNASRAMLSNEESLLHYMREADILRSTKQGILYETTNSLMSIKTSDYESLDGTNAHYNIFDEVHTYDDDFIKVVNDGSSRKRKNWITWYISTNGTKRDKLFDKYYNIWVDILDDKIINDSVMPWIYQLDDVSEIHDPDMWQKAMPLLGITTEKETIARDIEMSKNDPAQQAELMAKTFNLPVNNYLAYFSNEECKGWSDKFDESLFVGDDERNARCVIGIDLSDVNDICSISFMVVRGEERHYLNKKFMPRHTIETLPKELRDKYTEWELSGMLHVHELDYNDQAYIFEELRQFMSDNRILPVAVGYDRYNARELIRLFNDYYGDICHDIPQTVKSLSNPLKVYKEKAKMGKIIFDDPVATWNHANVRVKIDANNNIFPNKEKAKEKIDVFASQLDAFICYENFKEDLSYYFD, MKYSSFLKQAEENLVPIFSEIDAKVKENLYKVIEAFRHHRVGVQHFAGVSGYGHDDLGRDTLDGVFAQVMGAESAAVRVQFVSGTHAIACALYGILRPGDELLSAVGSPYDTLEEVIGLRGSCQGSLADFNISYRQLPLTAAGTVDWQGLETAVRPETRLVLIQRSCGYSWRPSLAIADIARIIEIVKAQNPRTLCFVDNCYGEFIETVEPTAIGVDLMAGSLIKNPGGTIVTAGGYLAGKEEWVEAGAYRLTAPGIGLEHHHHHH
